Measurements from article doi:10.1101/2024.08.22.609182 (bioRxiv, 2024).

Columns and labels:
[1] = molecular target: adenylate kinase 2 (AK2), recombinant human (human, UniProt P54819 1-239); assay: SEC
SEC = molecular target: the molecule itself; assay: SEC

B1: AIFM1 ΔR201 (disease-related variant) (domain or fragment)
chain: LGLTPEQKQKKAALSASEGEEVPQDKAPSHVPFLLIGGGTAAFAAARSIRARDPGARVLIVSEDPELPYMRPPLSKELWFSDDPNVTKTLRFKQWNGKESIYFQPPSFYVSAQDLPHIENGGVAVLTGKKVVQLDVRDNMVKLNDGSQITYEKCLIATGGTPRSLSAIDRAGAEVKSRTTLFRKIGDFRSLEKISREVKSITIIGGGFLGSELACALGRKARALGTEVIQLFPEKGNMGKILPEYLSNWTMEKVRREGVKVMPNAIVQSVGVSSGKLLIKLKDGRKVETDHIVAAVGLEPNVELAKTGGLEIDSDFGGFRVNAELQARSNIWVAGDAACFYDIKLGRRRVEHHDHAVVSGRLAGENMTGAAKPYWHQSMFWSDLGPDVGYEAIGLVDSSLPTVGVFAKATAQDNPKSATEQSGTGIRSESETESEASEITIPPSTPAVPQAPVQGEDYGKGVIFYLRDKVVVGIVLWNIFNRMPIARKIIKDGEQHEDLNEVAKLFNIHED
In the case of B1, the binding result [1] is reported as “binds” and the “stoichiometry N” value (SEC) is reported as 2.
